From PMC5618490, “Arabidopsis E3 Ubiquitin Ligases PUB22 and PUB23 Negatively Regulate Drought Tolerance by Targeting ABA Receptor PYL9 for Degradation” (International Journal of Molecular Sciences, 2017) come the findings set out here.

One experiment addresses T1, MBP-PUB22 (Arabidopsis thaliana, UniProt Q9SVC6 1-435).
T1 construct: PUB22, plant U-box E3 ubiquitin ligase, Arabidopsis thaliana; Kept on the amylose resin for the pull-down; source: E. coli BL21 (DE3), purified (amylose resin); not shown: MBP, N-terminal, kept
T1 sequence (looked up): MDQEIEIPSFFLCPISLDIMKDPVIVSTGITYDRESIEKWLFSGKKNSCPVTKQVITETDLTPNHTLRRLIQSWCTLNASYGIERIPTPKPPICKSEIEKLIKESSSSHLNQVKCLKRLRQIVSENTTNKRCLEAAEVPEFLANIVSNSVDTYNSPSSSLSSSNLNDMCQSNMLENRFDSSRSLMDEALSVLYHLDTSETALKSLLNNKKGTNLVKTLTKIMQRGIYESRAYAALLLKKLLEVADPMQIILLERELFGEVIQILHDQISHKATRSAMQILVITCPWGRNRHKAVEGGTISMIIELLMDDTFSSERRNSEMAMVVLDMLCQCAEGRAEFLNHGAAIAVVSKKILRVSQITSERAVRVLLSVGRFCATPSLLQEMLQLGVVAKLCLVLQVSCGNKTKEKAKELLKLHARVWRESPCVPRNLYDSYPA
Briefly: pull-down; MBP-PUBs or MBP on amylose resin incubated with GST-PYLs for 1 h at room temperature in 20 mM Tris-HCl pH 7.2, 10 mM MgCl2, 2 mM DTT; washed five times; blot with anti-GST antibody. To be noted: both partners purified.

A further experiment addresses T2, MBP-PUB23 (Arabidopsis thaliana, UniProt Q84TG3 1-411).
T2 construct: PUB23, plant U-box E3 ubiquitin ligase, Arabidopsis thaliana; Kept on the amylose resin for the pull-down; source: E. coli BL21 (DE3), purified (amylose resin); not shown: MBP, N-terminal, kept
T2 sequence (looked up): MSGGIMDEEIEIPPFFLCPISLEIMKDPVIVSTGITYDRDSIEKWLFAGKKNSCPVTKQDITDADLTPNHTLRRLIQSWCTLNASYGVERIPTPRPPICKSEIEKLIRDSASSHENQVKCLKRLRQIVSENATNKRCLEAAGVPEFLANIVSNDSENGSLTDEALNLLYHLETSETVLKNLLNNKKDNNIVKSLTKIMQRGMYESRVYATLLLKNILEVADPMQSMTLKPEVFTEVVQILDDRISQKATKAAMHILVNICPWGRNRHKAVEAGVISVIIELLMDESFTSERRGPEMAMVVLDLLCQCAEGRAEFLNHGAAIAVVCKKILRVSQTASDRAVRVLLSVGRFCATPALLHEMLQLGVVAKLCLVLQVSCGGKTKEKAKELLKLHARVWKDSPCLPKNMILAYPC
The description is as above. To be noted: both partners purified.

B1: GST-PYL5 (receptor, Arabidopsis thaliana, UniProt Q9FLB1 1-203, looked up)
chain: MRSPVQLQHGSDATNGFHTLQPHDQTDGPIKRVCLTRGMHVPEHVAMHHTHDVGPDQCCSSVVQMIHAPPESVWALVRRFDNPKVYKNFIRQCRIVQGDGLHVGDLREVMVVSGLPAVSSTERLEILDEERHVISFSVVGGDHRLKNYRSVTTLHASDDEGTVVVESYIVDVPPGNTEEETLSFVDTIVRCNLQSLARSTNRQ
notes: PYL5, PYR/PYL/RCAR family ABA receptor, Arabidopsis thaliana; cDNA fused to the C terminus of the GST tag in pCold-GST; source: E. coli DE3 cells, purified (Glutathione Sepharose 4B); not shown: GST, N-terminal, kept
On to B1, for which the binding result with MBP-PUB22 was “binds”.

B2: GST-PYL8 (receptor, Arabidopsis thaliana, UniProt Q9FGM1 1-188, looked up)
chain: MEANGIENLTNPNQEREFIRRHHKHELVDNQCSSTLVKHINAPVHIVWSLVRRFDQPQKYKPFISRCVVKGNMEIGTVREVDVKSGLPATRSTERLELLDDNEHILSIRIVGGDHRLKNYSSIISLHPETIEGRIGTLVIESFVVDVPEGNTKDETCYFVEALIKCNLKSLADISERLAVQDTTESRV
notes: PYL8, PYR/PYL/RCAR family ABA receptor, Arabidopsis thaliana; cDNA fused to the C terminus of the GST tag in pCold-GST; source: E. coli DE3 cells, purified (Glutathione Sepharose 4B); not shown: GST, N-terminal, kept
As to B2, in the experiment with MBP-PUB22, the binding result was “binds”.

B3: GST-PYL7 (receptor, Arabidopsis thaliana, UniProt Q1ECF1 1-211, looked up)
chain: MEMIGGDDTDTEMYGALVTAQSLRLRHLHHCRENQCTSVLVKYIQAPVHLVWSLVRRFDQPQKYKPFISRCTVNGDPEIGCLREVNVKSGLPATTSTERLEQLDDEEHILGINIIGGDHRLKNYSSILTVHPEMIDGRSGTMVMESFVVDVPQGNTKDDTCYFVESLIKCNLKSLACVSERLAAQDITNSIATFCNASNGYREKNHTETNL
notes: PYL7, PYR/PYL/RCAR family ABA receptor, Arabidopsis thaliana; cDNA fused to the C terminus of the GST tag in pCold-GST; source: E. coli DE3 cells, purified (Glutathione Sepharose 4B); not shown: GST, N-terminal, kept
Take B3: in the experiment with MBP-PUB22, the binding result is reported as “binds”.

B4: GST-PYL9 (receptor, Arabidopsis thaliana, UniProt Q84MC7 1-187, looked up)
chain: MMDGVEGGTAMYGGLETVQYVRTHHQHLCRENQCTSALVKHIKAPLHLVWSLVRRFDQPQKYKPFVSRCTVIGDPEIGSLREVNVKSGLPATTSTERLELLDDEEHILGIKIIGGDHRLKNYSSILTVHPEIIEGRAGTMVIESFVVDVPQGNTKDETCYFVEALIRCNLKSLADVSERLASQDITQ
notes: PYL9, PYR/PYL/RCAR family ABA receptor, Arabidopsis thaliana; cDNA fused to the C terminus of the GST tag in pCold-GST between EcoRI and SalI; source: E. coli, purified (Glutathione Sepharose 4B, eluted with reduced glutathione); not shown: GST, N-terminal, kept
B4: the binding result in the experiment with MBP-PUB23 is recorded as “binds”.
